Consider 2 molecules from paper PMC9381089 (Molecular Cancer Therapeutics, 2022).

The target of experiment [1] is cynomolgus monkey SEZ6, ectopically expressed on 293T cells (Macaca fascicularis, UniProt A0A2K5WPJ4). Kind of experiment: flow cytometry on cells. In general terms: Flow cytometry measures light scatter and fluorescence of single cells or particles in a stream.
Experiment [2] has as its target murine SEZ6, ectopically expressed on 293T cells (Mus musculus (Mouse)., UniProt Q7TSK2). Kind of experiment: flow cytometry on cells.

Chain of murine SEZ6, ectopically expressed on 293T cells (Q7TSK2 20-991): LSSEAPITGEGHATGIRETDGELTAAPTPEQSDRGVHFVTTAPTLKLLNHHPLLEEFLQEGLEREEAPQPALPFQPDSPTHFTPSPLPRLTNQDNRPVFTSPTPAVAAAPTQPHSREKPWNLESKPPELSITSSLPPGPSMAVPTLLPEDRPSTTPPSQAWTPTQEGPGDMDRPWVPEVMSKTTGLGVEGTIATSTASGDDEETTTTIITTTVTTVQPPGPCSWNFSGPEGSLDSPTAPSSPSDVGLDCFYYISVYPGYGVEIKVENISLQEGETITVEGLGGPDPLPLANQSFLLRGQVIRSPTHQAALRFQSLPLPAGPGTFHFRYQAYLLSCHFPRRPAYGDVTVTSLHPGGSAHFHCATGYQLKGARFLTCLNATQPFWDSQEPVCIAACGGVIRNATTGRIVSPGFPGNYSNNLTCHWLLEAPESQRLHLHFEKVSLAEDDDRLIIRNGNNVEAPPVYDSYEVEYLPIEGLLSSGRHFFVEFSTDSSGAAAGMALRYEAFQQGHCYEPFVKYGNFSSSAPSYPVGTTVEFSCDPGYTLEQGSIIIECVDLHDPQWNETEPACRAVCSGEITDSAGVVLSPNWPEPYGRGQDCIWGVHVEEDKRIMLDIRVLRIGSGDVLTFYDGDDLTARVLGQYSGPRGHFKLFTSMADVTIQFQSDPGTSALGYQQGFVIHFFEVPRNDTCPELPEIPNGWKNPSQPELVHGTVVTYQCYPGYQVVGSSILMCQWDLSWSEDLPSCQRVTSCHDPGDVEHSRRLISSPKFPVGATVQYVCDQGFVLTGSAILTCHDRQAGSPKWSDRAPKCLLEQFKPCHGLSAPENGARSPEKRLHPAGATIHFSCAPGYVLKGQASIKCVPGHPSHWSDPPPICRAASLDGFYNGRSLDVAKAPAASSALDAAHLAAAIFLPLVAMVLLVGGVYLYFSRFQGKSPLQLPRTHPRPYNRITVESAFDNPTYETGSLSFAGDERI

B1: ABBV-011 (SC17 conjugated to the calicheamicin linker drug LD19.10) (antibody, V domains shown)
VH: EVQLVQSGAEVKKPGESLKISCKGSGYSFTSSWINWVRQMPGKGLEWMGRIYPGEGDTNYSGNFEGQVTISADKSISTAYLQWSSLKASDTAMYYCTRGLVMDYWGQGTLVTVSS
VL: EIVLTQSPATLSLSPGERATLSCRASQSVDYNGISYMHWYQQKPGQAPRLLIYAASNVQSGIPARFSGSGSGTDFTLTISSLEPEDFAVYYCQQSIEDPPTFGGGTKVEIK
With B1, the binding result in experiment [1] and in experiment [2] was “binds” in each case.

B2: SC17, humanized anti-SEZ6 monoclonal antibody (antibody, V domains shown)
VH: B1 VH
VL: B1 VL
B2: the binding result in experiment [1] is “binds”.
